These results are taken from patent US20120039806A1 (BURNET INSTITUTE, published 2012).

The target of experiment [1] is T1, membrane bound mouse 5B6 on transiently transfected 293T cells (full length untagged m5B6, pIRES-Neo) (mouse).
T1 construct: also called mouse Clec9A
T1 chain: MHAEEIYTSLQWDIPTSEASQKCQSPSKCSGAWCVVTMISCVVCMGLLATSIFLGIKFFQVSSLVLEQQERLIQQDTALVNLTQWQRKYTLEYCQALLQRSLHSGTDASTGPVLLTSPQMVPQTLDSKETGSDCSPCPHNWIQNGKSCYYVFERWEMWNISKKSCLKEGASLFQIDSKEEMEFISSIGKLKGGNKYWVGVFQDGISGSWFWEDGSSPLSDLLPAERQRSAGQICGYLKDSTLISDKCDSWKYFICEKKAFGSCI
Put plainly: flow cytometry on transiently transfected live 293T cells, soluble FLAG-tagged protein. From the text: (§1) Two-three days later, cells were harvested and surface immunofluorescence labeled using either (1) soluble FLAG-tagged biotinylated m5B6, h5B6 and Cire, and detected with Streptavidin PE, or (2) soluble FLAG-tagged 5B6, biotinylated anti-FLAG mAb 9H10, and Streptavidin-PE. Live cells were gated on forward and side scatter, or by propidium iodide exclusion and analysed for their surface binding of soluble 5B6.
(In general: Flow cytometry measures light scatter and fluorescence of single cells or particles in a stream.)

Experiment [2] has as its target T2, membrane bound human 5B6 on transiently transfected 293T cells (full length untagged h5B6, pIRES-Neo) (human, UniProt Q6UXN8 1-241).
T2 construct: also called human CLEC9A
The experiment is described as above.
Excerpt: as §1

Experiment [3] has as its target T3, GST-RNF41FL (full length RNF41 as glutathione S-transferase fusion protein) (human, UniProt Q5R7T5 1-317 (Pongo abelii entry)).
T3 construct: Expressed in BL21 (DE3) E. coli, solubilised with Sarcosyl and immobilised on Glutathione-Sepharose 4B; also called GST-RNF41 fusion protein; not shown: glutathione S-transferase (GST) of a modified pGEX-2T vector (GE Healthcare)
T3 sequence: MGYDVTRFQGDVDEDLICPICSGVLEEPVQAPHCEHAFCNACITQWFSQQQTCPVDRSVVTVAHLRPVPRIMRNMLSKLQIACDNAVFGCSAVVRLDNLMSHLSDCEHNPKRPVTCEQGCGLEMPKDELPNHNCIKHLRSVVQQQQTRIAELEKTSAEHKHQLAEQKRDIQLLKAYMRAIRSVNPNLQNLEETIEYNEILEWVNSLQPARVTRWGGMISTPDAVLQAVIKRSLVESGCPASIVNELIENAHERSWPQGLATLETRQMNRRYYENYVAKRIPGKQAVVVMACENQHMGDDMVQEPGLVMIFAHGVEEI
Put plainly: pull-down on glutathione beads, anti-FLAG Western blot. The method, then:
(§2) Glutathione Sepharose resin coupled with either GST or GST-RNF41 proteins was resuspended in the binding buffer (0.2% NP-40 and 2% glycerol in 20 mM Tris-buffered saline, pH 7.5 containing complete protease inhibitor cocktail mixture (Roche) and 1 mM PMSF) and mixed with 1 μg/m purified FLAG-tagged soluble Clec9A (also in binding buffer) and incubated at 4° C. on a rotating wheel for 2 hours. The beads were washed extensively with the binding buffer to remove unbound proteins. Bound proteins were eluted from the beads by the addition of 2×SDS reducing sample and heated at 92° C. for 5 minutes. The eluted proteins were separated by SDS-PAGE followed by Western blot with anti-FLAG antibody.
(§3) The inventors subcloned and expressed full length RNF41 (RNF41FL), and RNF41 transcript variant 2 (RNF41₇₂₋₃₁₇) as GST-RNF41 fusion proteins in bacterial cells. The fusion proteins were immobilized onto glutathione beads, and incubated with mClec9A-ecto or with the control mClec12A-ecto. mClec9A-ecto directly bound to both GST-RNF41FL and GST-RNF41₇₂₋₃₁₇, but not to GST alone (FIG. 13). […] This confirmed that mClec9A binds specifically to RNF41.
A general note: In western blotting, separated proteins are transferred to a membrane and probed.

In experiment [4] the target is T4, GST-RNF41 72-317 (RNF41 transcript variant 2 as glutathione S-transferase fusion protein) (human, UniProt Q5R7T5 72-317 (Pongo abelii entry), N-terminal GST fusion, immobilised on Glutathione-Sepharose beads; carrier not in the letters).
T4 construct: Expressed in BL21 (DE3) E. coli and immobilised on Glutathione-Sepharose 4B; not shown: GST carrier (glutathione S-transferase of the modified pGEX-2T vector) and any linker at the N end
T4 sequence: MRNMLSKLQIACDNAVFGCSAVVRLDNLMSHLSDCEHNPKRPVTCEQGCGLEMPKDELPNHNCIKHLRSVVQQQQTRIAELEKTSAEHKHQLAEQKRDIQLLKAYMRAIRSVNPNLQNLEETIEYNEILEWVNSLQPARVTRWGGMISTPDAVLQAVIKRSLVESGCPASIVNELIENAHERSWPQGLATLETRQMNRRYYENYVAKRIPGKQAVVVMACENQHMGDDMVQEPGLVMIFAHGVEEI
The experiment is described as above. The method, then: as §2, §3

Experiment [5] addresses T5, RNF41 isoform encoded by RNF41 transcript variant 2 (Accession number NM-194358), GST-tagged, on the … (human, UniProt Q5R7T5 72-317 (Pongo abelii entry)).
T5 construct: A bought array (Invitrogen); also called isoforms of RNF41; not shown: GST tag of the array protein
T5 sequence: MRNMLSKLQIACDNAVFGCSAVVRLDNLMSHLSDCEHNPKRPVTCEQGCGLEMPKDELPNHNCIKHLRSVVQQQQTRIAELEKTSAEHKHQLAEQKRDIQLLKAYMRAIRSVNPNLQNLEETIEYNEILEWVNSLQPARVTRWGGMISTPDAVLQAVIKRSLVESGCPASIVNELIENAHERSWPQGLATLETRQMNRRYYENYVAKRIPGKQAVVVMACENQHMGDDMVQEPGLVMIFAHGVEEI
Briefly: human protein microarray (ProtoArray v4.1), biotinylated probe, Streptavidin-Alexa Fluor647. Here is the method:
Biotinylated purified soluble mClec9A-ecto and Cire (control) were diluted to 50 μg/ml in Casein Washing Buffer (Invitrogen) and hybridised to Human protein microarrays using the “ProtoArray Human Protein Microarray v4.1 Protein-Protein Interaction (PPI) kit for biotinylated proteins” (Invitrogen, #PAH05241011) as per manufacturer's instructions. Binding of the biotinylated proteins was detected using Streptavidin-Alexa Fluor647, and images acquired using a fluorescence microarray scanner (GenePix4000B scanner, Axon Instruments). Positive interactions were identified using the ProtoArray Prospector software (Invitrogen).

The target of experiment [6] is T6, Spectrin (purified from human erythrocytes, Sigma, #S3644) (human, UniProt P02549 1-2419; P11277 2-2137).
T6 construct: mature; A bought native preparation; also called purified spectrin
T6 sequence (P02549 whole entry, chain 1 of 2): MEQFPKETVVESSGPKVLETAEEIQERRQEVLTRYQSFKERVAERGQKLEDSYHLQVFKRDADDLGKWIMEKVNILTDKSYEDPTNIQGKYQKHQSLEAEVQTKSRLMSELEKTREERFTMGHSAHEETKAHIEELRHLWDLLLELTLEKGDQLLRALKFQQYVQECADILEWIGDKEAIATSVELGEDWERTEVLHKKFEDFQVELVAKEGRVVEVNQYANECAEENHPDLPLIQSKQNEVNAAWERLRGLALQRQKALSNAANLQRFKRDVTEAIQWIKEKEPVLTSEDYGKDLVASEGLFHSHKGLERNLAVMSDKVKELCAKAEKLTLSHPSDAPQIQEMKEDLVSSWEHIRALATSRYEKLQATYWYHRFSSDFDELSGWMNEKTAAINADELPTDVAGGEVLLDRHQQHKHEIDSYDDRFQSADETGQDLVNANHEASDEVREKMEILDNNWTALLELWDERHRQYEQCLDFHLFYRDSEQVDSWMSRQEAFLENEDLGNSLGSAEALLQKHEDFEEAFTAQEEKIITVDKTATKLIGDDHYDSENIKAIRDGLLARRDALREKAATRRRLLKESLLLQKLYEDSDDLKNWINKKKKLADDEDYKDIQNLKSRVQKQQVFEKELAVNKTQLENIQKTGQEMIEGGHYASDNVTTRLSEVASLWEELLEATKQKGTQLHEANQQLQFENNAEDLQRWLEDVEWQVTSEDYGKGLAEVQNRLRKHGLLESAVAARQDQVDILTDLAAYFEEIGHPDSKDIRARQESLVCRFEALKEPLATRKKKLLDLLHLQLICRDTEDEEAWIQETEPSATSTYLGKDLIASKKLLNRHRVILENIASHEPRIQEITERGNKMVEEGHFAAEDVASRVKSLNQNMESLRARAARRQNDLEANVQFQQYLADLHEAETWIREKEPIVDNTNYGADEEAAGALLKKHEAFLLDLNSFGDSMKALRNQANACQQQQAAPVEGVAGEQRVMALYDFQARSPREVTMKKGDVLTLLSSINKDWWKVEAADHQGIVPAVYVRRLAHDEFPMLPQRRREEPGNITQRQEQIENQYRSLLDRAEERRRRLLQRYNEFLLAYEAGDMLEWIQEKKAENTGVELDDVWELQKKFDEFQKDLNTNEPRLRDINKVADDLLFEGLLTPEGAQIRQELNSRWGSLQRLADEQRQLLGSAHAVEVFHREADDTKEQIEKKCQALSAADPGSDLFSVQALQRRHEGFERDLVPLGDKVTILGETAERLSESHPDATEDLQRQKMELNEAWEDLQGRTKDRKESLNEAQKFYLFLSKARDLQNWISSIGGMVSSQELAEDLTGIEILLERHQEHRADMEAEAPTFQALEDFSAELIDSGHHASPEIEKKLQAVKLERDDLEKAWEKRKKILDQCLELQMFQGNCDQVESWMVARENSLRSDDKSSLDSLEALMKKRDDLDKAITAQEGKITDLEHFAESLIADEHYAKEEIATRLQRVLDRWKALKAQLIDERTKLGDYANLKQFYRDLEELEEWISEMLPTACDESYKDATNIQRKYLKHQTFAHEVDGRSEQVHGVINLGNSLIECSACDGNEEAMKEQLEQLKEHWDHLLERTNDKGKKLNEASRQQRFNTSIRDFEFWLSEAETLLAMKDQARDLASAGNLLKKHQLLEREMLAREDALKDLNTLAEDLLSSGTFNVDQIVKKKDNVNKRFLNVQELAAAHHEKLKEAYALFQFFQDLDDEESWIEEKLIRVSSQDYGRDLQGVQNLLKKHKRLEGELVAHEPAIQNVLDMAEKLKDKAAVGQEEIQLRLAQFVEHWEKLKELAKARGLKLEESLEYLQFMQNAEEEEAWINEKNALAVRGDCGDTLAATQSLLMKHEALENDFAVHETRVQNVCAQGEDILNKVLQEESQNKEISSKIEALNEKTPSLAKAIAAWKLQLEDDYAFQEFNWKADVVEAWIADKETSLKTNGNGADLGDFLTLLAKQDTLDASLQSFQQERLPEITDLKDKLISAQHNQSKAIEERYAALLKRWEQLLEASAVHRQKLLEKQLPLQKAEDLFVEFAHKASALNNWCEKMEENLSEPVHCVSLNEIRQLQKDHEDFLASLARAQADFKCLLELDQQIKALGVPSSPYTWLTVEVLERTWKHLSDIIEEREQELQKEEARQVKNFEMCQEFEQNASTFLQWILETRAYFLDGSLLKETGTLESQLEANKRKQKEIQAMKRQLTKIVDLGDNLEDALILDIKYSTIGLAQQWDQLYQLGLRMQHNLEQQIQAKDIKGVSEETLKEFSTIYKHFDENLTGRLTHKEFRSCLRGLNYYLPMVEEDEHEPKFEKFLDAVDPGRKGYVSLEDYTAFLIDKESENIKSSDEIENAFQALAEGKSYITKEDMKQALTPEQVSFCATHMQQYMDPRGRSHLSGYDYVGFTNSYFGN
T6 sequence (P11277 2-2137, chain 2 of 2): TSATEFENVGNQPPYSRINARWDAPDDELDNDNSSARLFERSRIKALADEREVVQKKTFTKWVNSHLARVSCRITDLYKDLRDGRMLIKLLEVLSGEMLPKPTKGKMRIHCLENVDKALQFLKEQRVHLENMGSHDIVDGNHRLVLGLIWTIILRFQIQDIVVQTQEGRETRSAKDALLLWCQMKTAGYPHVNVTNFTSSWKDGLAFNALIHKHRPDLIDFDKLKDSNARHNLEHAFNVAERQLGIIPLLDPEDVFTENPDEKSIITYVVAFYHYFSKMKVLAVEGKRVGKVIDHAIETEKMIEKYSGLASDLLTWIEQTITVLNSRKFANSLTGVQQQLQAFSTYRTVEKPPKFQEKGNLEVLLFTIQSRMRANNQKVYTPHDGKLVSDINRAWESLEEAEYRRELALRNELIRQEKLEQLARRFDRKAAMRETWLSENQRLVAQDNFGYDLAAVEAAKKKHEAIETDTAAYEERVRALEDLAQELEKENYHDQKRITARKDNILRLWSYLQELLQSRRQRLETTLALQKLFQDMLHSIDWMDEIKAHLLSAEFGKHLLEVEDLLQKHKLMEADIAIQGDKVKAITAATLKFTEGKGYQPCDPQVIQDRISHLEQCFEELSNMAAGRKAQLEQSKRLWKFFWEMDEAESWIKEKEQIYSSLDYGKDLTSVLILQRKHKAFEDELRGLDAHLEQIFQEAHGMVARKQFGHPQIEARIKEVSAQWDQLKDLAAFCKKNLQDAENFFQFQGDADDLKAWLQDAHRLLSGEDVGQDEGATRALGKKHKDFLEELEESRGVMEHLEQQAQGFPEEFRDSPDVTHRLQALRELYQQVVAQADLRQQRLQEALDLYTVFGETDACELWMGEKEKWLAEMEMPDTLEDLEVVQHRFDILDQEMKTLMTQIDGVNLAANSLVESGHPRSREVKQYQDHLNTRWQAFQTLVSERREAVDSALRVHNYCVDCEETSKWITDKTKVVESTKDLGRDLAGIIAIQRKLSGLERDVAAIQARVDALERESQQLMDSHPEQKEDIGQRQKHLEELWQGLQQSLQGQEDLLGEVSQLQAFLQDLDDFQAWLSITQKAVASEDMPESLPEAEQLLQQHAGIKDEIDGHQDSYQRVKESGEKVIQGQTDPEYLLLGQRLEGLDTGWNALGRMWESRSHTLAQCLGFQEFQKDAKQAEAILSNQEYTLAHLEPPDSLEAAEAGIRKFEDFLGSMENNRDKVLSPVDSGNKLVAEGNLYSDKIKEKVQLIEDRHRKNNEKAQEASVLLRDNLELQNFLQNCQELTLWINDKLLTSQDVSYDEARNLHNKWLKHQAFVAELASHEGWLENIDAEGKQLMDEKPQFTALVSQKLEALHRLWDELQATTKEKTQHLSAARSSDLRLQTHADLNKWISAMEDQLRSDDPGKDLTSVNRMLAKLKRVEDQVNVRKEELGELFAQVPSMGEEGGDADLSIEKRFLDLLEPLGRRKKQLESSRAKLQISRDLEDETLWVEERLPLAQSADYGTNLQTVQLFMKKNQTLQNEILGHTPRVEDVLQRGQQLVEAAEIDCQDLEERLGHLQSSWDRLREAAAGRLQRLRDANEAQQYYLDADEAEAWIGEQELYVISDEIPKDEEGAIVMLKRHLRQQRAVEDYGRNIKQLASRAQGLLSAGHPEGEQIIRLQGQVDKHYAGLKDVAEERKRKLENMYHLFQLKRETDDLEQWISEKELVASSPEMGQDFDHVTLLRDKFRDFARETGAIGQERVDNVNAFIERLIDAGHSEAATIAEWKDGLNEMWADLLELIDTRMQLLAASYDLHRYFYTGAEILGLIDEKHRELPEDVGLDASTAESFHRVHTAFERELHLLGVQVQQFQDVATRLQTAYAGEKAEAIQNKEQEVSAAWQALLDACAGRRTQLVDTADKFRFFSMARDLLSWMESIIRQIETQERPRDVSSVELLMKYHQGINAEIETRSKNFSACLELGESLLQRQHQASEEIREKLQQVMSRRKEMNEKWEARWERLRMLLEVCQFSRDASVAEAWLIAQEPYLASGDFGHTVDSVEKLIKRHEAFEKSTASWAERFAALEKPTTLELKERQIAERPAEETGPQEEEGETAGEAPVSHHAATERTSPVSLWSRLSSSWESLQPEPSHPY
Briefly: ELISA, spectrin coated, biotinylated soluble protein, SA-HRP. Here is the method: ELISA plates (Costar, Broadway, Cambridge, UK) were coated overnight at 4° C. with […] of Spectrin (purified from human erythrocytes, Sigma, #S3644) or Actin (Sigma). Unbound proteins were washed away (PBS, 0.05% Tween-20), and the ELISA plates blocked with PBS, 1% BSA. Serially diluted biotinylated purified mClec9A-ecto, mClec9A-CTLD and Cire soluble proteins were plated (PBS, 1% BSA) and incubated at 4° C. overnight. Bound soluble proteins were detected using Streptavidin-HRP and visualised using ABTS.
(In general: In an ELISA, binding on a coated surface is turned into a signal by an enzyme label.)

For experiment [7], the target named is T7, GST protein (control, plasmid control) (UniProt P08515 1-218 = GST).
T7 construct: also called GST alone; GST control
Put plainly: pull-down on glutathione beads, anti-FLAG Western blot. Here is the method: as §2, §3

T2 sequence (Q6UXN8 whole entry): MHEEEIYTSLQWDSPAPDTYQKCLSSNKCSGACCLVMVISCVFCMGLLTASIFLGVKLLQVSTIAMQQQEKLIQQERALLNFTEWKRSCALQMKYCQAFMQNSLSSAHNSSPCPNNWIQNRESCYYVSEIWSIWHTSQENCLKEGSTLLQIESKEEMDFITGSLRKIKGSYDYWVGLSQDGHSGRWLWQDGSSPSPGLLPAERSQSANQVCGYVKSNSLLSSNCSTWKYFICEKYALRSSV

B1: hCLEC9A-ecto (tagged soluble ectodomain human Clec9A; stalk and CTLD) (receptor)
chain: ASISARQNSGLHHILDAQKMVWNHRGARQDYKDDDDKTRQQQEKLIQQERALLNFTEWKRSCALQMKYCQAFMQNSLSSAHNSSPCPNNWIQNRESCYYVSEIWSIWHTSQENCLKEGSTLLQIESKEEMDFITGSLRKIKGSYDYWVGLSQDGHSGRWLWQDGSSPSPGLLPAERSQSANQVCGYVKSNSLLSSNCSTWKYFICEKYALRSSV
notes: also called soluble FLAG-tagged h5B6; soluble human 5B6
As for B1, the binding result in experiment [1] and in experiment [2] was “binds” each time.

B2: mClec12A-ecto (soluble FLAG-tagged mouse Clec12A, control) (receptor, not shown: small tags and cut ends)
chain (part 1 of 2): NSGLHHILDAQKMVWNHR
chain (part 2 of 2): YTTLATEMIKSNQLQRAKEELQENVFLQLKHNLNSSKKIKNLSAMLQSTATQLCRELYSKEPEHKCKPCPKGSEWYKDSCYSQLNQYGTWQESVMACSARNASLLKVKNKDVLEFIKYKKLRYFWLALLPRKDRTQYPLSEKMFLSEESERSTDDIDKKYCGYIDRVNVYYTYCTDENNIICEETASKVQLESVLNGLPEDSR
notes: extracellular domain; Control lectin
For the molecule B2, the binding result in experiment [3] and in experiment [4] was “no binding (tested: 1 µg/m)” each time.

B3: Cire-ecto (soluble FLAG-tagged C-type lectin Cire, control) (receptor, mouse, not shown: small tags and cut ends)
chain (part 1 of 2): NSGLHHILDAQKMVWNHR
chain (part 2 of 2): VKVYKIPSSQEENNQMNVYQELTQLKAGVDRLCRSCPWDWTHFQGSCYFFSVAQKSWNDSATACHNVGAQLVVIKSDEEQNFLQQTSKKRGYTWMGLIDMSKESTWYWVDGSPLTLSFMKYWSKGEPNNLGEEDCAEFRDDGWNDTKCTNKKFWICKKLSTSCPSK
modifications: biotinylated with BirA where the filing says 'biotinylated' (ELISA, microarray)
notes: extracellular domain; Control lectin; The construct is described only as similar to the Clec9A constructs; also called mouse Cire/mDCSign; biotinylated Cire-ecto
Regarding B3, the binding result is “no binding (tested: 50 µg/ml)” in experiment [5] and “no binding” in experiment [6].

B4: mClec9A-ecto (tagged soluble ectodomain mouse Clec9A; stalk and CTLD) (receptor)
chain: ASISARQNSGLHHILDAQKMVWNHRGARQDYKDDDDKTREQQERLIQQDTALVNLTQWQRKYTLEYCQALLQRSLHSGTDASTGPVLLTSPQMVPQTLDSKETGSDCSPCPHNWIQNGKSCYYVFERWEMWNISKKSCLKEGASLFQIDSKEEMEFISSIGKLKGGNKYWVGVFQDGISGSWFWEDGSSPLSDLLPAERQRSAGQICGYLKDSTLISDKCDSWKYFICEKKAFGSCI
modifications: enzymatically biotinylated with BirA at the biotinylation consensus sequence where the filing says 'biotinylated' (ELISA, protein microarray); unbiotinylated FLAG-tagged protein in the pull-down and in FIG. 6
notes: also called soluble FLAG-tagged m5B6; soluble mouse 5B6
With B4, the binding result is “binds” in experiment [1], “binds” in experiment [2] and “no binding (tested: 1 µg/m)” in experiment [7].
